Among the data in publication PMC11797554 (2024) are koff and Kd values, retold here.

Usually koff stands for a measure of how fast the partners let go of each other. As usually defined, the Kd is the equilibrium constant for the complex coming apart.

Assay [1] deals with T1, SCRM KiDoK peptide (Arabidopsis, UniProt Q9LSE2, biotin). Kind of assay: BLI.
Assay [2] concerns the target T1, SCRM KiDoK peptide. Kind of assay: BLI; in presence of kC9. For orientation: In BLI a coated tip is dipped into the sample, and binding shifts an interference pattern.
The target in assay [3] is T1, SCRM KiDoK peptide. Briefly: BLI; in presence of kC9; kinetic fit.

B1: MPK6ΔNt (29 to 305) (domain or fragment)
chain: QMPGIENIPATLSHGGRFIQYNIFGNIFEVTAKYKPPIMPIGKGAYGIVCSAMNSETNESVAIKKIANAFDNKIDAKRTLREIKLLRHMDHENIVAIRDIIPPPLRNAFNDVYIAYELMDTDLHQIIRSNQALSEEHCQYFLYQILRGLKYIHSANVLHRDLKPSNLLLNANCDLKICDFGLARVTSESDFMTEYVVTRWYRAPELLLNSSDYTAAIDVWSVGCIFMELMDRKPLFPGRDHVHQLRLLMELIGTPSEEELEFLNENAKRYIRQLPPYPRQSITDKFPTVHPLAIDLIEKMLTFDPRRRITVLDALAHPYLNSLHDISDEPECTIPFNFDFENHALSEEQMKELIYREALAFNPEYQQ
Turning to B1, the figures for the koff with SCRM KiDoK peptide [1] and in the assay with SCRM KiDoK peptide [2] were 0.0327 s⁻¹ and 0.0178 s⁻¹, respectively. Also, in the assay with SCRM KiDoK peptide [3], the Kd was 1050 nM.
